According to patent US9844563B2, “Compositions, kits, and methods to induce acquired cytoresistance using stress protein inducers” (FRED HUTCHINSON CANCER RESEARCH CENTER, priority 2014, dated 2017):

Key:
[1] = Maleate model of AKI (FeS, SnPP, FeS+SnPP); type: in vivo, mice; conditions: IV 1 mg FeS and/or 1 μmole SnPP 18 hrs before IP Na maleate 800 mg/Kg; 18 hrs later
Source text: Effects of Fe sucrose (FeS)/tin protoporphyrin (SnPP) on AKI severity. Maleate model of AKI. When injected into rodents, maleate undergoes relatively selective proximal tubule cell uptake via organic anion transporters. Once intracellular accumulation occurs, maleate is a preferred substrate for succinyl-CoA:3-oxoacid CoA transferase. […] Ample levels of CoA are essential for fatty acid “activation”, allowing for their subsequent metabolism through the Krebs cycle, yielding ATP. In the absence of this process, proximal tubule ATP depletion and cell injury result. Additionally, maleate conjugates the sulfhydryl group of glutathione (GSH), culminating in GSH depletion and potential oxidant tubular stress.
The following experiment tested whether FeS, SnPP or combined FeS+SnPP can mitigate this form of acute kidney injury (AKI). Twenty seven mice were subjected to 200 μL IV tail injections of one of the following: 1) vehicle (phosphate buffered saline, PBS; n, 10); 2) 1 mg FeS (American Regent (Shirley, N.Y.; n, 3); 3) 1 μmole SnPP (Frontier Scientific, Logan, Utah; n 7), or FeS+SnPP, n, 7). Eighteen hrs later, all mice received an IP injection of Na maleate (800 mg/Kg; in 500 ul of PBS). […] The severity of kidney injury was assessed by determining plasma blood urea nitrogen (BUN) and plasma creatinine (PCr) concentrations.

[2] = system: heme oxygenase 1 (HO-1); assay: Renal cortical induction of HO-1 by FeS, SnPP and B12 (ELISA, RT-PCR); type: in vivo, mice
Experimental: Effects of FeS, SnPP, and B12 on renal cortical induction of heme oxygenase 1 (HO-1). The following experiments assessed the effects of FeS, SnPP, and B12 on the possible induction of the cytoprotective protein HO-1. To this end, mice were injected with each of these agents, as noted above. Either 4 or 18 hrs later, they were anesthetized and the kidneys were removed through a midline abdominal incision. The renal cortices were dissected on ice and then extracted for protein and mRNA. The samples were then assayed for HO-1 protein by ELISA, and HO-1 mRNA by RT-PCR, factored by GAPDH levels. Five normal mice provided control values.

[3] = system: HK-2 cells; assay: HK-2 cell injury by MTT assay; type: cell-based; conditions: equimolar Na nitrite added to 10 mg/ml myoglobin, 18 hr incubation
Experimental: HK-2 cells (a proximal tubule cell line derived from normal human kidney) were incubated in keratinocyte serum free medium either under normal (control) conditions or in the presence of 10 mg/mL horse skeletal muscle myoglobin or nitrited myoglobin (produced by equimolar Na nitrite addition to 10 mg/ml myoglobin). After 18 hr incubations, the severity of cell injury (% cell death) was assessed by MTT assay. Myoglobin induced 40% cell death (40% decrease in MTT cell uptake), compared to control incubated cells. Nitrite binding to myoglobin reduced cell death by 75%. Thus, nitrite binding is able to reduce myoglobin's cytotoxic effects.

[4] = Serum creatinine after 2 hr subcutaneous infusion of N-myoglobin (constant SnPP); type: in vivo, mice; conditions: 2 hr subcutaneous infusion 1, 3, 6, 12, or 25 mg/Kg, SnPP constant 1 μmole; 18 hrs later
Experimental: Mice were subjected to a 2 hr subcutaneous infusion of 1, 3, 6, 12, or 25 mg/Kg of nitrited myoglobin (holding SnPP at a constant dose of 1 μmole). Eighteen hrs later, potential renal injury was assessed by measuring serum creatinine concentrations.
An obvious concern by applying this prophylactic strategy to patients is potential renal and/or extrarenal toxicities. […] Furthermore, it was previously documented in a cell culture system that nitrite addition markedly reduces myoglobin's cytotoxic effects by 75% (unpublished data, 2014). To assess the potential in vivo margin of safety for N-Mgb+SnPP (see Supplemental FIGs.), the maximal amount of N-Mgb that could be given to mice before nephrotoxicity was observed was tested. Up to 25 times the employed N-Mgb dose (with a constant SnPP dose) could be administered (over 2 hours) without induction of nephrotoxicity (normal BUN and creatinine, 18 hours later).

[5] = system: HO-1; assay: Renal cortical HO-1 mRNA (RT-PCR) and protein (ELISA) after N-Mgb, SnPP or both; type: in vivo, mice
Experimental: (§1) Thirty-two mice were divided into 4 equal groups: (1) control mice; (2) mice treated with 1 mg of N-Mgb injection (as a bolus through the tail vein); (3) mice treated with […] of SnPP (via tail vein); and (4) mice treated with combined N-Mgb 1 SnPP. After either 4 hours (n=16) or 18 hours (n=16), the mice were deeply anesthetized with pentobarbital (50 mg/kg), the abdomen was opened through a midline abdominal incision, and the kidneys were removed. To determine potential effects on extrarenal organs, a liver lobe and the heart were also removed. The tissues were iced and then extracted for protein and RNA (RNeasy Plus Mini; Qiagen, Valencia, Calif.) and subjected to enzyme linked immunosorbent assay (ELISA) and reverse transcriptase polymerase chain reaction (RT-PCR) for HO-1, haptoglobin, and IL-10 protein and messenger RNAs (mRNAs). Zager et al. J Am Soc Nephrol 2014;25:998-1012; Zager et al. Am J Physiol 2012;303:F139-48. As an assessment of renal function, control mice and the 18 hour after N-Mgb+SnPP—treated mice had blood urea nitrogen (BUN) and plasma creatinine levels measured. Additionally, transverse 10% formalin fixed kidney sections ([…]) were cut and stained with hematoxylin and eosin (H&E) and periodic acid Schiff (PAS) to further assess potential injury.

[6] = system: Haptoglobin; assay: Renal cortical haptoglobin mRNA and protein after N-Mgb, SnPP or both; type: in vivo, mice
Experimental: as §1

[7] = system: IL-10; assay: Renal cortical IL-10 mRNA and protein after N-Mgb, SnPP or both; type: in vivo, mice
Experimental: as §1

[8] = system: HO-1; assay: Liver HO-1 mRNA and protein after N-Mgb, SnPP or both; type: in vivo, mice
Experimental: as §1

[9] = system: Haptoglobin; assay: Liver haptoglobin mRNA and protein after N-Mgb, SnPP or both; type: in vivo, mice
Experimental: as §1

[10] = system: IL-10; assay: Liver IL-10 mRNA and protein after N-Mgb, SnPP or both; type: in vivo, mice
Experimental: as §1

[11] = system: HO-1; assay: Cardiac HO-1 mRNA and protein after N-Mgb, SnPP or both; type: in vivo, mice
Experimental: as §1

[12] = system: Haptoglobin; assay: Cardiac haptoglobin mRNA and protein after N-Mgb, SnPP or both; type: in vivo, mice
Experimental: as §1

[13] = system: IL-10; assay: Cardiac IL-10 mRNA and protein after N-Mgb, SnPP or both; type: in vivo, mice
Experimental: as §1

[14] = Glycerol model of rhabdomyolysis-induced AKI; type: in vivo, mice; conditions: IV pretreatment 18 hours before glycerol; 18 hours after glycerol
Experimental: Assessments of cytoresistance. Glycerol model of rhabdomyolysis-induced AKI. Twenty mice were divided into 4 equal groups (controls, mice treated with N-Mgb, SnPP, and mice treated with N-Mgb+SnPP tail vein injections) as described previously. 18 hours later, the mice were briefly anesthetized with isoflurane and immediately injected with 9 mL/kg of 50% glycerol, administered in equally divided doses into each hind limb. At 18 hours after glycerol injection, the mice were anesthetized with pentobarbital, the abdomen was opened, a blood sample for BUN and creatinine assessments was obtained from the vena cava, and the kidneys were resected. The control post-glycerol group and the N-Mgb+SnPP—pretreated glycerol group had kidney sections stained with H&E.
Calculations and statistics. All values are given as the mean […] standard error of the mean. Statistical comparisons were made by unpaired Student's t test. If multiple comparisons were made, the Bonferroni correction was applied. The severity of renal histologic injury in the glycerol AKI model was graded on a […] (least to most severe tubular necrosis and cast formation observed). The histologic results were compared by Wlcoxon rank sum test. Statistical significance was taken as a P value of <0.05.

[15] = renal cortex, 4 h after Rx treatment

Fe sucrose [FeS]
reductions in BUN/PCr concentrations, maleate-induced AKI [1]: Neither SnPP alone nor FeS alone significantly altered the severity of renal injury | renal cortical HO-1 protein levels ([2]; 4 hr post IV injection): marked HO-1 protein increases | renal cortical HO-1 protein levels ([2]; 18 hr time point): remained elevated at the 18 hr time point, particularly in the case of FeS administration | renal cortical HO-1 protein levels ([2]; 18 hr time point, listed as Fe sucrose): persists for 18 hrs

cyanocobalamin [vitamin B12]
renal cortical HO-1 protein levels ([2]; 4 hr post IV injection): marked HO-1 protein increases | renal cortical HO-1 protein levels ([2]; 18 hr time point): persists for 18 hrs

B1: N-Mgb: horse skeletal muscle myoglobin converted into a nitrited form by equimolar Na nitrite (protein, UniProt P68082 2-154, looked up)
Myoglobin: GLSDGEWQQVLNVWGKVEADIAGHGQEVLIRLFTGHPETLEKFDKFKHLKTEAEMKASEDLKKHGTVVLTALGGILKKKGHHEAELKPLAQSHATKHKIPIKYLEFISDAIIHVLHSKHPGDFGADAQGAMTKALELFRNDIAAKYKELGFQG
modifications: nitrited with sodium nitrite
reduction of myoglobin-induced cell death by nitrite binding [3]: 75% | serum creatinine concentrations (potential renal injury) [4]: No significant increase | increase in renal HO-1 mRNA ([5]; 4 hours after IV injection, vs controls): only modest increases | Kidney mRNA cortex HO-1 ([5]; 18 h after Rx treatment): 0.58 ± 0.18 | Kidney protein HO-1 ([5]; 18 h after Rx treatment): 30 ± 6 | increase in renal HO-1 protein ([5]; 18 hours post-treatment, vs control values): only relatively small HO-1 protein increases | Kidney HO-1 protein [5, 15]: 36.1 ± 2.9 | Kidney mRNA HO-1 [5, 15]: 3.38 ± 0.38 | Kidney mRNA cortex Haptoglobin ([6]; 18 h after Rx treatment): 0.24 ± 0.04 | Kidney protein Haptoglobin ([6]; 18 h after Rx treatment): 183.8 ± 20.4 | increase in renal cortical haptoglobin protein levels ([6]; 18 hours after injections): comparably increased | Kidney Haptoglobin (protein) [6, 15]: 17.6 ± 1^ | Kidney mRNA Haptoglobin [6, 15]: 1.94 ± 0.31 | increase in renal IL-10 mRNA ([7]; 4 hours after injection): either minimal or no impact | Kidney mRNA cortex IL-10 ([7]; 18 h after Rx treatment): 0.43 ± 0.10 | Kidney protein IL-10 ([7]; 18 h after Rx treatment): 292 ± 54 | increase in renal IL-10 protein ([7]; 18 hours after injection): absence of IL-10 protein increases | Kidney IL-10 (protein) [7, 15]: 265 ± 54 | Kidney mRNA IL-10 [7, 15]: 1.45 ± 0.6 | Liver mRNA HO-1 ([8]; 4 h after Rx treatment): 1.83 ± 0.33 | Liver protein HO-1 protein ([8]; 4 h after Rx treatment): 17 ± 2 | Liver mRNA HO-1 ([8]; 18 h after Rx treatment): 0.82 ± 0.07 | Liver protein HO-1 protein ([8]; 18 h after Rx treatment): 14.9 ± 0.3 | Liver mRNA Haptoglobin ([9]; 4 h after Rx treatment): 0.98 ± 0.1 | Liver protein Haptoglobin ([9]; 4 h after Rx treatment): 359.5 ± 39.6 | Liver mRNA Haptoglobin ([9]; 18 h after Rx treatment): 0.91 ± 0.07 | Liver protein Haptoglobin ([9]; 18 h after Rx treatment): 358.8 ± 32.8 | Liver mRNA IL-10 ([10]; 4 h after Rx treatment): 0.67 ± 0.46 | Liver protein IL-10 ([10]; 4 h after Rx treatment): 286 ± 32 | Liver mRNA IL-10 ([10]; 18 h after Rx treatment): 0.06 ± 0.02 | Liver protein IL-10 ([10]; 18 h after Rx treatment): 5988 ± 549 | Cardiac Protein HO-1 ([11]; 4 h after Rx treatment): 1.64 ± 0.19 | Cardiac mRNA HO-1 ([11]; 4 h after Rx treatment): 0.09 ± 0.01 | Cardiac mRNA HO-1 ([11]; 18 h after Rx treatment): 0.08 ± 0.01 | Cardiac mRNA Haptoglobin ([12]; 4 h after Rx treatment): 0.75 ± 0.10 | Cardiac protein Haptoglobin ([12]; 4 h after Rx treatment): 40.4 ± 8.6 | Cardiac mRNA Haptoglobin ([12]; 18 h after Rx treatment): 0.53 ± 0.21 | Cardiac protein Haptoglobin ([12]; 18 h after Rx treatment): 249.6 ± 15.0 | Cardiac mRNA IL-10 ([13]; 4 h after Rx treatment): 0.86 ± 0.11 | Cardiac protein IL-10 ([13]; 4 h after Rx treatment): 21 ± 12 | Cardiac mRNA IL-10 ([13]; 18 h after Rx treatment): 0.67 ± 0.10 | Cardiac protein IL-10 ([13]; 18 h after Rx treatment): 14.5 ± 10^ | protection against glycerol-induced AKI (BUN/creatinine levels) [14]: modest protection
